Tests used:
[1] = target: neonatal Fc receptor (FcRn), His-tagged (SinoBiological, cat. no. CT009-H08H-B) (UniProt P55899); assay: SPR kinetics assay at pH 6.0; His-tagged FcRn captured on anti-His chip, antibody 0-100 nM; mean of three experiments
[2] = target: neonatal Fc receptor (FcRn), His-tagged (SinoBiological, cat. no. CT009-H08H-B) (UniProt P55899); assay: SPR kinetics assay at pH 6.0; His-tagged FcRn captured on anti-His chip, antibody 0-100 nM

Chain of neonatal Fc receptor (FcRn), His-tagged (SinoBiological, cat. no. CT009-H08H-B) (P55899 24-297 limits assumed, form in doubt): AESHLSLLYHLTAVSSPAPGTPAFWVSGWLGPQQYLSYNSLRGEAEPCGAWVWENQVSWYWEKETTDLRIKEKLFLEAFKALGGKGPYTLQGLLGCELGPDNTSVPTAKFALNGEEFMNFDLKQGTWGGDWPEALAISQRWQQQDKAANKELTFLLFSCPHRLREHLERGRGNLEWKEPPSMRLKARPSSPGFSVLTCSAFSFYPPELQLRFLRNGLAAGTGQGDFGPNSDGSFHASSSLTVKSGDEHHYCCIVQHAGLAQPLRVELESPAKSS

Work on IgG1-b12 (antibody) yielded a Kd [1] of 29 nM, a koff [2] of 0.0322 s⁻¹ and a kon [2] of 1.1e+06 M⁻¹ s⁻¹.

From patent publication US20230295335A1
